According to article PMC10053787, “A New Gene SCY3 Homologous to Scygonadin Showing Antibacterial Activity and a Potential Role in the Sperm Acrosome Reaction of Scylla paramamosain” (International Journal of Molecular Sciences, 2023):

Tests used:
[1] = target: T1, rSCY4; assay: biolayer interferometry (Octet); assay type: binding, Scylla paramamosain; settings: biotinylated protein on Super Streptavidin sensor; progesterone 0.125-4 mM; phosphate-saline buffer pH 7.4, 0.02% Tween 20; room temperature
T1 construct: gene SCY4; biotinylated for BLI

[2] = target: T2, rSCY3 (Scylla paramamosain, UniProt A0AAW0UC28); assay: biolayer interferometry (Octet); assay type: binding; settings: biotinylated protein on Super Streptavidin sensor; progesterone 0.125-4 mM; phosphate-saline buffer pH 7.4, 0.02% Tween 20; room temperature
T2 construct: gene O3P69_004699; precursor printed as 124 aa; biotinylated for BLI
T2 sequence (A0AAW0UC28 11-110): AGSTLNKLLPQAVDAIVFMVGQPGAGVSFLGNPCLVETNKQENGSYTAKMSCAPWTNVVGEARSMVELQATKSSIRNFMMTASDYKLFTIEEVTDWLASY

[3] = target: T3, rSCY5; assay: biolayer interferometry (Octet); assay type: binding, Scylla paramamosain; settings: biotinylated protein on Super Streptavidin sensor; progesterone 0.125-4 mM; phosphate-saline buffer pH 7.4, 0.02% Tween 20; room temperature
T3 construct: gene SCY5; biotinylated for BLI

[4] = target: Recombinant His-tagged SCY1 (Scylla paramamosain); assay: SPR; Biacore T200, CM5 chip; rSCY1-4 immobilised (~200 resonance units), blank or rTrx reference cell; rSCY1-5 diluted in PBS and injected (28.8 to 0.45 µM), multiple cycle kinetics, 25 °C, 120-s association and 120-s dissociation
[5] = target: Recombinant His-tagged SCY2 (Scylla paramamosain); assay: as above

## CC(=O)[C@H]1CC[C@H]2[C@@H]3CCC4=CC(=O)CC[C@]4(C)[C@H]3CC[C@]12C [progesterone]
[1]
  Kd: 2280 µM
[2]
  Kd: 30800 µM
[3]
  Kd: 25300 µM

## Recombinant His-tagged SCY2 (natural protein)
[4]
  Kd: 11.3 µM

## Recombinant His-tagged SCY3 (natural protein)
[4]
  Kd: 4.12 µM
[5]
  Kd: 0.62 µM

## Recombinant His-tagged SCY4 (natural protein)
[4]
  Kd: 6.86 µM
[5]
  Kd: 14 µM

## Recombinant Trx-tagged SCY5 (natural protein)
[4]
  Kd: 0.14 µM
[5]
  Kd: 0.15 µM
